Test results taken from US20210060157A1 (published 2021).
Several values for one entry are separate records, joined by “and”; a condition that tells them apart may be missing. Identical values can stand only once.

Tests used:
[1] = target: T1, human complement component C6 (human, UniProt P13671 22-934); assay: SPR, Biacore 2000
T1 construct: Protein was purified from human serum (113 kDa); biotinylated in the Fab ELISAs; also called human C6; hC6
Protocol: (§1) Binding Kinetics: To investigate kinetics of 7E5 binding to C6, surface plasmon resonance measurement in a BIACORE 2000 (GE Healthcare) equipped with a research-grade CM5 sensor chip was used. The ligand (C6, 113 kDa) was immobilized using amine-coupling chemistry. The surface of flow cell two was activated for 7 minutes with a 1:1 mixture of 0.1 M NHS (N-hydroxysuccinimide) and 0.4 M EDC (3-(N,N-dimethylamino) propyl-N-ethylcarbodiimide) at a flow rate of 5 μl/min. The ligand at a concentration of 10 μg/ml in 10 mM sodium acetate, pH 5.0, was immobilized at a density of 955 RU. The surface was blocked with a 7 minute injection of 1 M ethanolamine, pH 8.0.
(§2) To collect kinetic binding data, the analytes (anti C6-antibodies, 150 kDa) in 10 mM HEPES, 150 mM NaCl, 0.005% P20, pH 7.4, were injected over the two flow cells at a flow rate of 30 μl/min and at a temperature of 25° C. The injected concentrations differ per antibody. Data were collected at a rate of 1 Hz. The complex was allowed to associate and dissociate for 90 and 300 seconds, respectively. The surfaces were regenerated with a 10 second injection of 0.1 M HCl. Duplicate injections (in random order) of each sample and a buffer blank were flowed over the two surfaces.
(§3) The data were fit to a simple 1:1 interaction model using the global data analysis option available within BiaEvaluation 4.1 software.

[2] = target: T1, human complement component C6; assay: SPR, Biacore 2000, derived from kd
Protocol: as §1, §2, §3

peptide 420 = target: T2, peptide 420 (human); assay: alanine scan on selected peptides (peptide array)
T2 peptide: DGRQLEWGLERTRLSS
Protocol: Subsequently, an alanine scan (in which alanine is used to replace amino acids one by one) on selected peptides was performed to help pinpoint the epitope.

peptide 418 = target: T3, peptide 418 (human); assay: peptide array of overlapping 16mer C6 peptides on a membrane
T3 construct: Synthesized and spotted on a membrane (peptide array)
T3 peptide: GSCQDGRQLEWGLERT
Protocol: Peptide arrays were used to determine the epitope of 7E5 in human C6. Consecutive overlapping 16mer peptides (peptides 16 amino acids long, overlapping 14 amino acids) from the C6 protein sequence were synthesized and spotted in a grid pattern on a membrane. The membrane was then incubated with 7E5 antibody to detect which peptide was recognized by the antibody.

[3] = target: T1, human complement component C6; assay: SPR, Biacore 2000, C6 amine-coupled to CM5 chip, antibody as analyte, 25 C, 1:1 model
Protocol: as §1, §2, §3

[4] = target: T1, human complement component C6; assay: ELISA on biotinylated hC6 and Biacore 3000 off-rate screening of periplasmic extracts on immobilized hC6

T1 sequence (P13671 22-934 limits assumed): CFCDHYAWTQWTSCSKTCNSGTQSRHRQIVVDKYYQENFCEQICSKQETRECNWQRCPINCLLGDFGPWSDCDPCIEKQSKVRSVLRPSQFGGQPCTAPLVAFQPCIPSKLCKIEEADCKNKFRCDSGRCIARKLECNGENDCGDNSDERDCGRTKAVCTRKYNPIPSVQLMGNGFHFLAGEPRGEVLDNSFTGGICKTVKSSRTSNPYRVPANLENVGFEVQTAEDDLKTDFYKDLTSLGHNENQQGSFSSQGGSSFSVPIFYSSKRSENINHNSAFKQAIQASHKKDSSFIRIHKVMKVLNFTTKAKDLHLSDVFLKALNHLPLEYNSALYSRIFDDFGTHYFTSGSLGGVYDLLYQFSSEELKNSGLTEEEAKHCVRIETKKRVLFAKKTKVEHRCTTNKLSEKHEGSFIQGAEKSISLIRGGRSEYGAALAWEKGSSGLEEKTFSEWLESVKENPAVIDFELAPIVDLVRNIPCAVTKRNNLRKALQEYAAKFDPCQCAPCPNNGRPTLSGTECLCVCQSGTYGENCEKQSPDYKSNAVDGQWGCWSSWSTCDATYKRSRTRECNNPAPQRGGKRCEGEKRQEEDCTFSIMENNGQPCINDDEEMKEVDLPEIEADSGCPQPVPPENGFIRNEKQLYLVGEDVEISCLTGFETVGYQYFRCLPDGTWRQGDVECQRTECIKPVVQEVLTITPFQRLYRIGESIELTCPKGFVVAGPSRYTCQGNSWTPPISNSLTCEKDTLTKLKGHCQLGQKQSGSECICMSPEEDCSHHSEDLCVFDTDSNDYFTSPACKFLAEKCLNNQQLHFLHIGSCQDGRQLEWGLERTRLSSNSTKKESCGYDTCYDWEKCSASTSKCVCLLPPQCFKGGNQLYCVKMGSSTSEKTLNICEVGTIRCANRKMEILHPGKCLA

B1: rat anti-human C6 monoclonal antibody 7E5 (antibody, V domains shown)
VH: EVQLVESDGGLVQPGGSLKLSCVASGFSFSDYYMAWVRQGPTKGLEWVATINYDGSSTYYRESVKGRFTISRDNAKRTLYLQMDSLRSEDTATYYCSRPSTEALFAYWGHGTLVTVSS
VL: DVVLTQTPSTLSATIGQSVSISCRSSQSLLNDVGNTYLYWYLQRPGQSPQLLIYLVSDLGSGVPNRFSGSGSGTDFTLKISGVEAEDLGIYYCMQASHAPYTFGAGTNLELK
notes: Whole antibody (150 kDa analyte in SPR) from a rat hybridoma; also called 7E5 mAb; supernatant #11
In the case of B1, the “half-life of the 7E5-C6 complex” value [1] is reported as over 40 h, the “t1/2 (complex half life)” value [2] is reported as 45 h and 45.1 h and the binding result (peptide 420) is reported as “binds”. The binding result (peptide 418) was “binds”, the Kd [3] was 0.253 nM and the koff [3] was 4.27e-06 s⁻¹. For the same binder, the kon [3] was 16900 M⁻¹ s⁻¹.

B2: humanized 7E5 Fab 7F06 (Fab, V domains shown)
VH: EVQLVESGGGLVQPGGSLKLSCAASGFTFRDYYMAWVRQGPGKGLEWVATINYDGSSTYYRESVKGRFTISRDNAKNSLYLQMDSLRAEDTAVYYCARPSTEALFAYWGHGTLVTVSS
VL: DVVLTQTPLTLSVTPGQPVSISCRSSQSLLNDVGNTYLYWYLQKPGQSPQLLIYLVSDLGSGVPNRFSGSGSGTDFTLKISRVEAEDVGVYYCMQASHAPYTFGAGTRLELK
notes: also called 7F6
B2: binds [4].

B3: humanized 7E5 Fab 7E11 (Fab, V domains shown)
VH: EVQLVESGGGLVQPGGSLRLSCVASGFTFSDYYMAWVRQAPGKGLEWVATINYDGSSTYYRESVKGRFTISRDNAKNTLYLQMDSLRAEDTAVYYCARPSTEALFAYWGQGTLVTVSS
VL: DIVLTQTPLSLSATPGQSVSISCRSSQSLLNDVGNTYLYWYLQRPGQSPQLLIYLVSDLGSGVPDRFSGSGSGTDFTLKISRVEAEDVGVYYCMQASHAPYTFGAGTNLEIK
B3: binds [4].

B4: humanized 7E5 Fab 7F11 (Fab, V domains shown)
VH: EVQLVESDGGLVQPGGSLKLSCAASGFTFSDYYMAWVRQGPTKGLEWVATINYDGSSTYYRESVKGRFTISRDNAKNTLYLQMNSLRAEDTAVYYCSRPSTEALFAYWGHGTLVTVSS
VL: DVVLTQTPSTLSVTPGQPVSISCRSSQSLLNDVGNTYLYWYLQKPGQSPQLLIYLVSDLGSGVPNRFSGSGSGTDFTLKISGVEAEDVGVYYCMQASHAPYTFGAGTRLEIK
B4: binds [4].

B5: humanized 7E5 Fab 7E12 (Fab, V domains shown)
VH: EVQLVESDGGLVQPGGSLKLSCAASGFTFSDYYMAWVRQGPGKGLEWVATINYDGSSTYYRESVKGRFTISRDNAKNTLYLQMNSLRAEDTATYYCARPSTEALFAYWGHGTLVTVSS
VL: DVVLTQTPSTLSVTPGQPASISCRSSQSLLNDVGNTYLYWYLQKPGQSPQLLIYLVSDLGSGVPNRFSGSGSGTDFTLKISRVEAEDVGIYYCMQASHAPYTFGQGTNLEIK
B5: binds [4].

B6: humanized 7E5 Fab 7F02 (Fab, V domains shown)
VH: EVQLVESGGGLVQPGGSLKLSCAASGFTFSDYYMAWVRQGPGKGLEWVATINYDGSSTYYRESVKGRFTISRDNAKNSLYLQMNSLRSEDTAVYYCARPSTEALFAYWGHGTLVTVSS
VL: DVVMTQTPSTLSATPGQSASISCRSSQSLLNDVGNTYLYWYLQKPGQSPQLLIYLVSDLGSGVPNRFSGSGSGTDFTLKISRVEAEDVGIYYCMQASHAPYTFGAGTRLELK
notes: also called 7F2
B6: binds [4].

B7: humanized 7E5 Fab 8G09 (Fab, V domains shown)
VH: EVQLVESDGGLVQPGGSLRLSCVASGFTFSDYYMAWVRQAPGKGLEWVATINYDGSSTYYRESVKGRFTISRDNAKRTLYLQMDSLRAEDTAVYYCARPSTEALFAYWGQGTLVTVSS
VL: DIVLTQTPLTLSVTPGQSVSISCRSSQSLLNDVGNTYLYWYLQKPGQSPQLLIYLVSDLGSGVPNRFSGSGSGTDFTLKISRVEAEDVGVYYCMQASHAPYTFGAGTRLEIK
B7: binds [4].

B8: humanized 7E5 Fab 8F07 (Fab, V domains shown)
VH: EVQLVESGGGLVQPGGSLRLSCAASGFSFSDYYMAWVRQGPGKGLEWVATINYDGSSTYYRESVKGRFTISRDNAKNTLYLQMNSLRSEDTATYYCARPSTEALFAYWGHGTLVTVSS
VL: DVVLTQTPLTLSVTPGQSVSISCRSSQSLLNDVGNTYLYWYLQKPGQSPQLLIYLVSDLGSGVPDRFSGSGSGTDFTLKISGVEAEDVGVYYCMQASHAPYTFGAGTKLEIK
notes: also called 8F7
B8: binds [4].
